Measured values as given in article PMC3956076.

Substrate: Nc1ncnc2c1ncn2[C@@H]1O[C@H](COP(=O)(O)OP(=O)(O)OP(=O)(O)OP(=O)(O)OC[C@H]2O[C@@H](n3cnc4c(N)ncnc43)[C@H](O)[C@@H]2O)[C@@H](O)[C@H]1O
Test: luciferase bioluminescence assay of liberated ATP
Type: biochemical, Chlamydia trachomatis
Conditions: 5.0 mM MgCl2, 100 mM Tris-HCl pH 7.5, room temperature

B1: CT771 (Chlamydia trachomatis L2/434/Bu) (protein)
chain: MMKTKHEYSFGVIPIRFFGTPDRSTLKACFICHTDGKHWGFPKGHAEEKEGPQEAAERELVEETGLGIVNFFPKIFVENYSFNDKEEIFVRKEVTYFLAEVKGEVHADPDEICDVQWLSFQEGLRLLNFPEIRNIVTEADKFVQSYLFAS
  Km: 333 ± 27 µM
  kcat: 3.25 ± 0.1 s⁻¹
